Measurements published in patent publication US20150175707.
Numbering of substitutions follows the chain as printed. Names may count otherwise.

Key:
[1] = HP-SEC as in Example 20, fraction of peak area; Fc:Fc self-oligomerization
[2] = HP-SEC, 0.15 M NaCl/0.1 M citrate pH 6.8; Fc:Fc self-oligomerization
[3] = HP-SEC as in Example 20; Fc:Fc self-oligomerization
[4] = HP-SEC, PBS pH 7.4 as mobile phase; Fc:Fc self-oligomerization
[5] = HP-SEC, 0.1 M Na2SO4/0.1 M sodium phosphate pH 6.8 (Example 23); Fc:Fc self-oligomerization
[6] = HP-SEC, 0.15 M NaCl/0.1 M citrate pH 5.0; Fc:Fc self-oligomerization
[7] = HP-SEC, 0.1 M Na2SO4/0.1 M sodium phosphate pH 6.8; Fc:Fc self-oligomerization

B1: Fc-RGY (IgG1m(f) Fc fragment with E345R, E430G and S440Y) (protein)
chain: EPKSCDKTHTCPPCPAPELLGGPSVFLFPPKPKDTLMISRTPEVTCVVVDVSHEDPEVKFNWYVDGVEVHNAKTKPREEQYNSTYRVVSVLTVLHQDWLNGKEYKCKVSNKALPAPIEKTISKAKGQPRRPQVYTLPPSREEMTKNQVSLTCLVKGFYPSDIAVEWESNGQPENNYKTTPPVLDSDGSFFLYSKLTVDKSRWQQGNVFSCSVMHGALHNHYTQKYLSLSPGK
[1]
  fraction monomers (HP-SEC): approximately 28% monomers
  fraction oligomers (HP-SEC): 72% oligomers distributed over multiple states

B2: IgG1-005-E345R/E430G/S440Y (protein)
chain: ASTKGPSVFPLAPSSKSTSGGTAALGCLVKDYFPEPVTVSWNSGALTSGVHTFPAVLQSSGLYSLSSVVTVPSSSLGTQTYICNVNHKPSNTKVDKRVEPKSCDKTHTCPPCPAPELLGGPSVFLFPPKPKDTLMISRTPEVTCVVVDVSHEDPEVKFNWYVDGVEVHNAKTKPREEQYNSTYRVVSVLTVLHQDWLNGKEYKCKVSNKALPAPIEKTISKAKGQPRRPQVYTLPPSREEMTKNQVSLTCLVKGFYPSDIAVEWESNGQPENNYKTTPPVLDSDGSFFLYSKLTVDKSRWQQGNVFSCSVMHGALHNHYTQKYLSLSPGK
[2]
  oligomerization (HP-SEC): in citrate pH 6.8 the antibody displayed 84% oligomerization
[3]
  % multimeric (HP-SEC): IgG1-005-RGY (79.2% multimeric)
[4]
  % multimers (HP-SEC): IgG1-005-RGY (84% multimers)
[5]
  fraction monomeric species (HP-SEC): 23% of the population eluted as a monomeric species
  fraction oligomer (HP-SEC): a fraction oligomer of 77%
[6]
  fraction monomeric species (HP-SEC): >99% of the protein eluting as a monomeric species
  fraction multimer (HP-SEC): The fraction multimer dropped to less than 1%
[7]
  fraction monomeric species (HP-SEC): 21% of the population eluted in a peak observed at the expected elution time for a monomeric species
  fraction oligomer (HP-SEC): a large fraction oligomer which was estimated at 79%

B3: IgG1-005-E345R/E430G/Y436I/S440K (protein)
chain: B2 chain with Y319I, Y323K
[4]
  % multimers (HP-SEC): IgG1-005-RGIK (1.8% multimers)

B4: IgG1-005-E345R/E430G/K439E/S440Y (protein)
chain: B2 chain with K322E
[4]
  % multimers (HP-SEC): IgG1-005-RGEY (2.7% multimers)

B5: IgG1-005-E345R/E430G/S440K (protein)
chain: B2 chain with Y323K
[4]
  % multimers (HP-SEC): IgG1-005-RGK (2.2% multimers)

B6: IgG1-M1-RGY (C. albicans mannan antibody M1g1 with E345R/E430G/S440Y) (protein)
chain: B2 chain
[3]
  fraction oligomer (HP-SEC): IgG1-M1-RGY (74.5%)
